Target: T1, BSA (UniProt P02769 25-607)
T1 construct: also called carrier protein BSA; 3% BSA
Assay: phage ELISA on coated plates, detection with HRP/anti-M13, OD450

T1 sequence (P02769 25-607 limits assumed): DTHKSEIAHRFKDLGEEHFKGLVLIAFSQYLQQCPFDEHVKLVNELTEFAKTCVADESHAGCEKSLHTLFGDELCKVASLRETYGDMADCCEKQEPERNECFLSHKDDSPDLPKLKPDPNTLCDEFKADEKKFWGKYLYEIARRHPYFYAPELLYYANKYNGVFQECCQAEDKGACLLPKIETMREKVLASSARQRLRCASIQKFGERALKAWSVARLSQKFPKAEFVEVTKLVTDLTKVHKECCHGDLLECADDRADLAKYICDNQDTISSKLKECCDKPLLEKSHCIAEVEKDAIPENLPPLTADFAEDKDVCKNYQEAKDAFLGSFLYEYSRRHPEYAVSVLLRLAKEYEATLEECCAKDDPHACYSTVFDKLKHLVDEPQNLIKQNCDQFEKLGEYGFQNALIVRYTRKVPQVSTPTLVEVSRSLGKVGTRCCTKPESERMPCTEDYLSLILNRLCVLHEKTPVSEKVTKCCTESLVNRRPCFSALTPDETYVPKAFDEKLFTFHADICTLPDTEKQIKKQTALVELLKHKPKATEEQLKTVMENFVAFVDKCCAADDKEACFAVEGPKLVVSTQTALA

B1: aflatoxin B1 nanobody 2014AFB-G15 (VHH)
VHH: QLQLVESGGGLVQAGGSLRLSCAASGRTFSSYAMGWFRQAPGKEREFVAAISWSGGSTYYTDSVKGRFTINRDNAKNTVYLQMNSLKPEDTAVYYCAAGFSGNYYRTPDYWGQGTQVTVSS
notes: also called antibody 2014AFB-G15
binding result: no binding (tested: wells coated with 3% BSA)

— patent publication EP3124498A1 (Oilcrops Research Institute of Chinese Academy of …, dated 2017)
